Measured values from patent US20240376185A1 (SMIVET B V, published 2024).

B1: SVT02 (VHH)
VHH: QVQLQQSGGGSVQAGGSLRLSCVGPQRTFSTYGMGWFRQAPGKEREFVAGINYKGDTTYYADSVKGRFTISRDNAKNTLYLQMDSLKPEDRAVYQCARKGGLGGDYRDAGQYRYWGQGTQVTVSS
B2: SVT02L (VHH)
VHH: QVQLQQSGGGSVQAGGSLRLSCVGPQRTFSTYGMGWFRQAPGKEREFVAGINYKGDTTYYADSVKGRFTISRDNAKNTLYLQMDSLKPEDRAVYQCARKGGLGGDYRDAGQYRYWGQGTQVTVSS
notes: yeast-produced
B3: SVT02-GS2-SVA12M2-H6 (bispecific antibody)
chain: QVQLQQSGGGSVQAGGSLRLSCVGPQRTFSTYGMGWFRQAPGKEREFVAGINYKGDTTYYADSVKGRFTISRDNAKNTLYLQMDSLKPEDRAVYQCARKGGLGGDYRDAGQYRYWGQGTQVTVSSGGGGSGGGSEVQLVESGGGLVQAGGSLRLSCAASGRTFSYYPMAWFRQAPGQEREFVAAIIGADTTYYADSLKGRFTISRDNAKNMVYLQMNSLKPEDTAVYYCAARNTYWSDVYYREGQYTNWGQGTQVTVSSHHHHHH
B4: SVT03 (VHH)
VHH: QVQLQQSGGGSVQTGDSLTLSCTASGGSLNSYFVGWFRQSGGKEREFVSVIARTGRSTSYADSVKGRFTISRDNAANTVFLTMNNLRPDDTAIYYCAAVGRPGVLHLTQSYDYWGQGTQVTVSS
B5: SVT03L (VHH)
VHH: QVQLQQSGGGSVQTGDSLTLSCTASGGSLNSYFVGWFRQSGGKEREFVSVIARTGRSTSYADSVKGRFTISRDNAANTVFLTMNNLRPDDTAIYYCAAVGRPGVLHLTQSYDYWGQGTQVTVSS
notes: yeast-produced

How the values were obtained:
[1] = target: T1, recombinant tetanus toxin fragment C (rTTC) (Clostridium tetani, UniProt P04958 865-1315); assay: ELISA, directly coated rTTC
T1 sequence: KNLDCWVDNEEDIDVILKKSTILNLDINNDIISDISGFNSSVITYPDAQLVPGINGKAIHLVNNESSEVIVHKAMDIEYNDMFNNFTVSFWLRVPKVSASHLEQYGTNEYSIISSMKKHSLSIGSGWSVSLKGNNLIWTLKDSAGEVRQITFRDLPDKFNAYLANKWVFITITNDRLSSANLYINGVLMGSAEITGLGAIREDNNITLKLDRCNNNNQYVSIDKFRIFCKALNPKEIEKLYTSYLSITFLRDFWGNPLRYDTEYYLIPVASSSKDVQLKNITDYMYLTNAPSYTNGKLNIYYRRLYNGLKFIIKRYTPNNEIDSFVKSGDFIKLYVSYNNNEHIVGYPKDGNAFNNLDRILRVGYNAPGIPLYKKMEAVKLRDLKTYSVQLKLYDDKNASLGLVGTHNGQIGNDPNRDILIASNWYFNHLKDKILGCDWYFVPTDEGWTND

[2] = target: T2, tetanus neurotoxin (TeNT), authentic tetanus holotoxin (Clostridium tetani, UniProt P04958 2-1315); assay: ELISA, directly coated TeNT, E. coli supernatant
[3] = target: T1, recombinant tetanus toxin fragment C …; assay: ELISA, directly coated rTTC, E. coli supernatant
[4] = target: T2, tetanus neurotoxin (TeNT), authentic …; assay: ELISA, cAb-TT2 captured TeNT, E. coli supernatant
[5] = target: T2, tetanus neurotoxin (TeNT), authentic …; assay: GT1b-TeNT inhibition ELISA (no SDA: 1.302, 1.257)
[6] = target: T3, dog albumin (dog Alb) (dog, UniProt P49822 25-608); assay: ELISA: coated dog Alb, anti-his6 PO
T3 construct: also called Canine albumin

[7] = target: T3, dog albumin (dog Alb); assay: ELISA: coated dog Alb, anti-his6 PO; remark: listed apart in the source
[8] = target: T4, horse albumin (horse Alb) (horse, UniProt P35747 25-607); assay: bridging ELISA: cAb-TT2-captured TeNT, SDA, biotinylated horse Alb, StrepPO
[9] = target: T4, horse albumin (horse Alb); assay: as above; remark: listed apart in the source

T2 sequence (P04958 2-457 limits assumed, chain 1 of 2): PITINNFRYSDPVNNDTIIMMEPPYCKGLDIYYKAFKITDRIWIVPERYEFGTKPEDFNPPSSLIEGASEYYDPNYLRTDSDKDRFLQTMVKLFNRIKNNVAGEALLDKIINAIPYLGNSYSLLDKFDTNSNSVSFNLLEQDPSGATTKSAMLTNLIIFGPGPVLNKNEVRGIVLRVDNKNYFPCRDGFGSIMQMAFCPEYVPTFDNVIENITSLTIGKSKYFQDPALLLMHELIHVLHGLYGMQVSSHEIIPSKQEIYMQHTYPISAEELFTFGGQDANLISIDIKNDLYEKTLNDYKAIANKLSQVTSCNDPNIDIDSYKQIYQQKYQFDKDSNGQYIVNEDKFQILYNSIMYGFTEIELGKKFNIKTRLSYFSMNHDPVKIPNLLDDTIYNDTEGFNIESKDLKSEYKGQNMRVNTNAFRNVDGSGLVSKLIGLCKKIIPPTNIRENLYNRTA
T2 sequence (P04958 458-1315 limits assumed, chain 2 of 2): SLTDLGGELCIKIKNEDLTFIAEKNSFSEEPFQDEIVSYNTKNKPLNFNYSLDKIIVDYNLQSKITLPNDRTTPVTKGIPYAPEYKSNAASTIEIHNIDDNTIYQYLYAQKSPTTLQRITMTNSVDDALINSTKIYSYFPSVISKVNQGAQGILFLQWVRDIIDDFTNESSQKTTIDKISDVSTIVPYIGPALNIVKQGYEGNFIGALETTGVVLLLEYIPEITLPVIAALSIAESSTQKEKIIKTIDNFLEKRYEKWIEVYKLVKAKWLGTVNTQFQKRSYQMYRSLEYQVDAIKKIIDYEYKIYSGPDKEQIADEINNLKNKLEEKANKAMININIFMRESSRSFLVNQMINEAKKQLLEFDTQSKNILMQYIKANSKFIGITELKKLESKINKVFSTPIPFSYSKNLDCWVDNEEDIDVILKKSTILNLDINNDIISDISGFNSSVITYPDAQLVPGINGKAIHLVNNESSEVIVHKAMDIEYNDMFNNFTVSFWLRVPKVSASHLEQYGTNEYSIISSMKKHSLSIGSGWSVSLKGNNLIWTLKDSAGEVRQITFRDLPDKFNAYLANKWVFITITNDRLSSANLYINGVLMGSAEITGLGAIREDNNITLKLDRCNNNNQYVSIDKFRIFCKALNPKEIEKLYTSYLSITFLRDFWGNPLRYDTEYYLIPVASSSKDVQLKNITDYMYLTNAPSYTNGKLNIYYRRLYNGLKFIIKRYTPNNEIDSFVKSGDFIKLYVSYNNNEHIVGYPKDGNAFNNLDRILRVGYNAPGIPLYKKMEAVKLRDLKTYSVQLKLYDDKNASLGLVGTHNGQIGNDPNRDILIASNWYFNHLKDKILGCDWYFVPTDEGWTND
T3 sequence (P49822 25-608 limits assumed): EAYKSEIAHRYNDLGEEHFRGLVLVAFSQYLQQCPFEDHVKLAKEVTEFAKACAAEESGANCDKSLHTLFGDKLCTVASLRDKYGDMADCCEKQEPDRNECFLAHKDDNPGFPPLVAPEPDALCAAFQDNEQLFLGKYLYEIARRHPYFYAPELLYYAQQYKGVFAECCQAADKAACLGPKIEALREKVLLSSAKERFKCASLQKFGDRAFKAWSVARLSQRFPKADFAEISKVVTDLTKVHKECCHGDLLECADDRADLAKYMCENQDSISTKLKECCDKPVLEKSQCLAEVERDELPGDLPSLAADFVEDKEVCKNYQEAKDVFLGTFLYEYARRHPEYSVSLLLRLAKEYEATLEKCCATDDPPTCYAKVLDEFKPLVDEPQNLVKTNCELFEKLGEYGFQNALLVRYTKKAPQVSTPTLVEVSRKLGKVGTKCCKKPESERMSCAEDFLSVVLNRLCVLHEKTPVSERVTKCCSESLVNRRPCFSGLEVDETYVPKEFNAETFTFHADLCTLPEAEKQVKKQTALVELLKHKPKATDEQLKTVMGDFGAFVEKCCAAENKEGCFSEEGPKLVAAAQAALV
T4 sequence (P35747 25-607 limits assumed): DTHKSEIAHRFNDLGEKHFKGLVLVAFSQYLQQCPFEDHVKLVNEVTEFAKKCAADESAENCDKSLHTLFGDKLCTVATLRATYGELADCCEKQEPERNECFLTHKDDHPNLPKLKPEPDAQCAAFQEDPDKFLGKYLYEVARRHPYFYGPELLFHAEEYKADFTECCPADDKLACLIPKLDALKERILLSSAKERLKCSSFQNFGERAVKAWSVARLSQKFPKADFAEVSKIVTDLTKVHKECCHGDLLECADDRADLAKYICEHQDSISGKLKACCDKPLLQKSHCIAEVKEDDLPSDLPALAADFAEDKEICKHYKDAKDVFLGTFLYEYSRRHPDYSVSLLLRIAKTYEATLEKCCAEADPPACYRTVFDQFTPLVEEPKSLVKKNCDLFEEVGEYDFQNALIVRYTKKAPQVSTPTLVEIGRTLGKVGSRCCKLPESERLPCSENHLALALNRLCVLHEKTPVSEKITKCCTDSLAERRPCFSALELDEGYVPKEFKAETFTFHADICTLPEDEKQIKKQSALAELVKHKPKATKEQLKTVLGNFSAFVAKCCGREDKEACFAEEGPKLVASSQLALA

Binder | binding result [1] | absorbance at 450 nm [2] [A450] | absorbance at 450 nm [3] [A450] | absorbance at 450 nm [4] [A450] | absorbance at 450 nm [5] [A450] | maximal absorbance value [6] [A450] | Effective SDA Concentration at A450 0.2 [7] [ng/mL] | maximal absorbance value [8] [A450] | Effective SDA Concentration at A450 0.7 [9] [ng/mL]
B1 | no binding (tested: tenfold diluted supernatant) | 0.078 | 0.06 | 0.511 | 1.34 |  |  |  | 
B2 | no binding |  |  |  |  |  |  |  | 
B3 |  |  |  |  |  | 1.91 | 13 | 1.1 | 11
B4 | no binding (tested: tenfold diluted supernatant) | 0.091 | 0.061 | 0.534 | 1.29 |  |  |  | 
B5 | no binding |  |  |  |  |  |  |  | 
